Assay results taken from the nanobody polyreactivity screen of Harvey et al. (2022).

Test: yeast display, Sf9 membrane polyspecificity reagent, FACS + sequencing; frameworks hold sequencing errors
In short: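 In a synthetic yeast display library (Saccharomyces cerevisiae BJ5465), nanobody expression was induced with galactose for 36–48 hours. FACS gates were set low and high (top ~1%) using anti-HA fluorescence for expression and streptavidin fluorescence for binding of the Sf9 membrane reagent. Each polyreactivity label is drawn from the gate of origin.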

Row | Sequence | polyreactivity (PSR sort gate)
1 | QVQLVESGGGLVQAGGSLRLSCAASGSTFPFYAMGWYRQAPGKERELVATISSDGSTNYADSVKGRFTISRDNAKNTDYLQMNSLKPEDTAVYYCNALARWCAYYDYGYWGQGTQVTVSS | low polyreactivity
2 | QVQLVESGGGLVQAGGSLRLSCAASGSTFPFYVMGWYRQAPGKERELVASITATGSSTYYADSVKGRFTISRDNAKNTVYLQMNRLKPEDTAVYYCAAPYFGWYLGYYWYREYDYWGQGTQVTVSS | low polyreactivity
3 | QVQLVESGGGLVQAGGSLRLSCAASGSTFPGNAMGWYRQAPGKERELVAAIDTSGGSTYYADSVKGRFTISRDNAKNTVYLQMNSLKAEDTAVYYCDADYLIEMDYWGQGTQVTVSS | low polyreactivity
4 | QVQLVESGGGLVQAGGSLRLSCAASGSTFPGYAMGWYRQAPGKERELVAAISKRGGSTYYADSVKGRFTISRDNAKNTVYLQMNSLKPEDTAVYYCATVSRKYSLDYWGQGTQVTVSS | high polyreactivity
5 | QVQLVESGGGLVQAGGSLRLSCAASGSTFPGYAMGWYRQAPGKERELVAAITWSGVTTYYADTVKGRFTMSRDNAKNTVYIQMNSLKPEDTAVYYCATGTLYSDGAIYGYWGQATQVTVSS | low polyreactivity
6 | QVQLVESGGGLVQAGGSLRLSCAASGSTFPKYAMGWYRQAPGKERELVAAITFTGSSTYYADSVKGRFTISRDNAKNTVYLQMNSLKPEDTAVYYCNAVYYTGYYWGQGTQVTVSS | low polyreactivity
7 | QVQLVESGGGLVQAGGSLRLSCAASGSTFPLYAMGWYRQAPGKERELVATITGSGGSTNYADSVKGRFTISRDNAKNTVYLQMNSLKPEDTAVYYCNARRRRLVSYYYWGQGTQVTVSS | high polyreactivity
8 | QVQLVESGGGLVQAGGSLRLSCAASGSTFPLYAMGWYRQAPGKEREMVAAITGGGGRTYYADSVKGRFTISRDNAKNTVYLQMNSLKPEDTAVYYCNAVVYLTNYWYDYWGQGTQVTVSS | low polyreactivity
9 | QVQLVESGGGLVQAGGSLRLSCAASGSTFPNYAMGWYRQAPGKERELVASISVTTGSTYYADSVKGRFTISRDYAKNTVYLQMNSLKPEDTAVYYCAKRTSSRKFRGAYNYWGQGTQVTVST | high polyreactivity
10 | QVQLVESGGGLVQAGGSLRLSCAASGSTFPNYPMGWYRQAPGKERELVAAITWSGGSTDYADSVKGRFTISRDNAKNTVYLQMNSLKPEDTAVYYCNADFGYWWDGRRYDYWGQGTQVTVSS | low polyreactivity
11 | QVQLVESGGGLVQAGGSLRLSCAASGSTFPPNAMGRYRQAPGKERELVAAISFSSGRTYYADSVKGRFTFSRDNAKNTVYLQMNSLKPEDTAVYYCAADHGYLGQGTQVTVSS | low polyreactivity
12 | QVQLVESGGGLVQAGGSLRLSCAASGSTFPPNAMGWYRQAPGKERELVAGINGSGGRTYYADSVKGRFTISRDNAKNTVYLQLNCMKPEDTAVYYCAAEGTTIWFDLTYDDWYEYYSWGQGTQVTVSS | high polyreactivity
13 | QVQLVESGGGLVQAGGSLRLSCAASGSTFPPYVMGWYRQAPGKERELVAAITWSSGSTYYADSVKGRFTISRDNAKNTVYLQMNSLKPEDTAVYYCAAKWLGYGFDYWGQGTQVTVSS | low polyreactivity
14 | QVQLVESGGGLVQAGGSLRLSCAASGSTFPRNAMGWYRQAPGKERELVATITSSGGGTYYADSVKGRFTISRDNAKNTVYLQMNSLKPEDTAVYYCNVEVHPYYWVDNFHRFPVLHNYWGQGTQVTVSA | low polyreactivity
15 | QVQLVESGGGLVQAGGSLRLSCAASGSTFPRNDMGWYRQAPGKERELVAAISRGGSTNNADSVKGRFTISRDNAKNTVYLQMNSLKPEDTAVYYCAAQIFESAYGMDYWGQGTQVTVSS | low polyreactivity
16 | QVQLVESGGGLVQAGGSLRLSCAASGSTFPRYAMGWYRPAPGKERELVARISNSGASTYYADSVKGRFTISRDNAKNTVYLQMNSLKPEDTAVYYCNARRYSRPSGFKHYHYAESDYWGQGTQVTVSS | high polyreactivity
17 | QVQLVESGGGLVQAGGSLRLSCAASGSTFPSNAMGWYRQAPGKERELVAAISSGGRTYYADSVKGRFTISRDNAKNTVYLQMNSLKPEDTAVYYCAADTDRRSPFDYWGQGTQVTVSS | high polyreactivity
18 | QVQLVESGGGLVQAGGSLRLSCAASGSTFPSNVMGWNRQAPVKERELVAAITWSGVRTYYADSVKGRFTISRDNAKNTVYLQMNSLKPEDTAVYYCAARSTYVRYDYWGQGTQVTVSS | high polyreactivity
19 | QVQLVESGGGLVQAGGSLRLSCAASGSTFPSYAMGWSRQAPGKERELVAAISRSGGSTYYADSVKGRFTISRDNAKNTVYLQMISLKPEDTAVYYCAARGHLRYESDYWGQGTQVTVSS | high polyreactivity
20 | QVQLVESGGGLVQAGGSLRLSCAASGSTFPSYAMGWYRQAPGKERELVAAINSGGGTNYADSVKGRFTISRDTAKNTVYLQMNSLKPEDTAVYYCAKARYDYTKPEGGYWGQGTHVTVSS | low polyreactivity
21 | QVQLVESGGGLVQAGGSLRLSCAASGSTFPSYAMGWYRQAPGKERELVAAISGSGTSTYYADSVKGRFTISRDNAKNTVYLQMNSRKPEDTAVYYCRAVWLSTYLGWGRDYWGQGTQVTVSS | high polyreactivity
22 | QVQLVESGGGLVQAGGSLRLSCAASGSTFPWNAMGWYRQAPGKERELVAAINYGNGSTYYADSVKGRFTISRDNAKNTVYLQMNSLKPVDTAVYYCNADFTGTRSDSVTPEYEYWGQGTQVTVSS | low polyreactivity

Row | Sequence | polyreactivity (PSR sort gate)
23 | QVQLVESGGGLVQAGGSLRLSCAASGSTFPWYVMGWYRQAPGKERELVAAISWSGGRTYYADSVKGRFTISRDNAKNTVYLQMNSLKPEDTAVYYCAADLSYWRGGHSRNYWGQGTQVTVSS | low polyreactivity
24 | QVQLVESGGGLVQAGGSLRLSCAASGSTFPYNAMGCDRQAAGKERELVAAISFSGGITTYADSVKGRFTISRDNAKNTVYLQMNSLKPEDTAVYYCNVAYTLHFGYWGQGTQVTVSS | low polyreactivity
25 | QVQLVESGGGLVQAGGSLRLSCAASGSTFPYNAMGWYRQAPGKERELVAAITSSGRTNYADSVKGRFTITLDNAKNTVYLQMNSLKPEDTAVYYCAAGRWYAHRVDYWGQGSQVTVSS | low polyreactivity
26 | QVQLVESGGGLVQAGGSLRLSCAASGSTFPYNAMGWYRQAPGKERELVAAITWRAGRTYYADSVKGRFTISRDNAKNTVYLQMNSLKPEDTAVYYCAKSYQRGVNHYEYWGQGTQVTVSS | high polyreactivity
27 | QVQLVESGGGLVQAGGSLRLSCAASGSTFPYNAMGWYRQAPGKERELVAANTFSGGSTYYADSVKGRFTISRDNAKNTVYLQMNSLKPEDTAVYYCNARYPWWGQRYDYWGQGTQVTVSS | low polyreactivity
28 | QVQLVESGGGLVQAGGSLRLSCAASGSTFPYNAMGWYSPAPGKERELVAAITSAGGTNYADSVKGRFTISRDNATNTVYLQMNSLKPEDTAVYYCAADGSGYYDWYYYWGQGTQVTVSS | low polyreactivity
29 | QVQLVESGGGLVQAGGSLRLSCAASGSTFPYYALGWSRQAPGKEREFVATISSSGGSTYYADSVKGRFTISRDNAKNTVYLQMNSLKPEDTAVYYCAARYQTSGFRYRYGYWGQGTQVTVSS | high polyreactivity
30 | QVQLVESGGGLVQAGGSLRLSCAASGSTFPYYAMGWYRQAPGKERELVAAISRGDSTNYADSVKGRFTISRDNAKNTVYLQMNSLKPEDTAVYYCAARLQYRRTSVKYYYWGQGTQVTVSS | high polyreactivity
31 | QVQLVESGGGLVQAGGSLRLSCAASGSTFPYYAMGWYRQAPGKERELVAAISRRGGSTYYADSVKGRFTISRDNAKNTVYLQMNSLKPEDTAVYYCAAGYYPSSSGDDYWGQGTQVTVSS | high polyreactivity
32 | QVQLVESGGGLVQAGGSLRLSCAASGSTFPYYAMGWYRQAPGKERELVAAITSSASTYYADSVKGRFTISRDNAKNTVYLQMNSLKPEDTAVYYCAVRSPYRLSRWRVGYWGQGTQVTVSS | high polyreactivity
33 | QVQLVESGGGLVQAGGSLRLSCAASGSTFPYYAMGWYRQAPGKERELVARISSGSSTNYADSVKGRFTISRDNAKNTVYLQMNSLKPEDTAVYYCAARYTARRQSYGYWGQGTQVTVSS | high polyreactivity
34 | QVQLVESGGGLVQAGGSLRLSCAASGSTFPYYGMGWYRQAPGKERDLVAVISRRGTGTYYADSVKGRFTISRDNAKNTVYLQMNSLKPEDTAVYYCNTDTHGPGPTFDHYDYWGQGTQVTVSS | low polyreactivity
35 | QVQLVESGGGLVQAGGSLRLSCAASGSTFPYYVMGWYRQAPGKERELVAAISKSGGSTYYADSVKGRFTISRDNEKNTVYLQMNSLKPEDTAVYYCAKSYRSSRRYNYWGQDTQVTVSS | high polyreactivity
36 | QVQLVESGGGLVQAGGSLRLSCAASGSTFQANTMGWYRQAPGKERELVAAISIRGANTYYADSVKGRFTISRDNAKNTVYLQMNSLKPEDTAVYYCATRVRKYSLRLDYWGQGTQVTVSS | high polyreactivity
37 | QVQLVESGGGLVQAGGSLRLSCAASGSTFQFYAMGWSRQAPGKERELVATISSGDSTNYADSVKGRFTISRDNAKNTVYLQMNSLKPEDTAVYYCAADFWGQYQGLDGGDYWGQGTQVTVSS | low polyreactivity
38 | QVQLVESGGGLVQAGGSLRLSCAASGSTFQFYAMGWYRHAPGKERELVAAIDGSDGDTYYADSVKGRFTISRDNAKNTVYLQMNSLKPEDTAVYYCNADRDALVGYDYDYWGQGTQVTVSS | low polyreactivity
39 | QVQLVESGGGLVQAGGSLRLSCAASGSTFQFYAMGWYRQAPGKEREFVAAITTRSGSTYYADSVKGRFTISRDNAKNTVYLQMNSLKPEDTAVYYCAAYIYGHSSDSVRYEYWGQGTQVTVSS | low polyreactivity
40 | QVQLVESGGGLVQAGGSLRLSCAASGSTFQGYAMGWYRQAPGNERELVAAISRRGGSTYYADSVKGRFTISRDNAKNTVYFQKNSLKPEDTAVYYCNAVVRTIVLYYWGQGTQVTVSS | high polyreactivity
41 | QVQLVESGGGLVQAGGSLRLSCAASGSTFQLYAMGWYRQAPGKERELVAAISGIGDSTYYADSVKGRFTISRDNAKNTVYLQMNSLKPEDTAVYYCAREFSDGLSGKFDYWGQGTQVTVSS | low polyreactivity
42 | QVQLVESGGGLVQAGGSLRLSCAASGSTFQPYAMGWYRQAPGKEREFVATISGSAGSTYYADSVKGRFKISRDNAKNTVYLLMNSLKPEDTAVYYCNADSGWFGYDYWGQGTQVTVSS | low polyreactivity
43 | QVQLVESGGGLVQAGGSLRLSCAASGSTFQPYTMGWYRQAPGTERELVAAITGRGGSTYYADSVKGRFTISRDNAKNTVYLQMNSLKPEDTAVYYCAAGAYRRNKSDYYYWGQGTQVTVSS | low polyreactivity
